# In article PMC4714197, “The Tomato Nucleotide-binding Leucine-rich Repeat Immune Receptor I-2 Couples DNA-binding to Nucleotide-binding Domain Nucleotide Exchange” (The Journal of Biological Chemistry, 2015):
# T1: I-2 CC-NB-ARC WT (I-2 1-519) (Solanum lycopersicum (tomato), UniProt Q9XET3 1-519)
# T1 sequence: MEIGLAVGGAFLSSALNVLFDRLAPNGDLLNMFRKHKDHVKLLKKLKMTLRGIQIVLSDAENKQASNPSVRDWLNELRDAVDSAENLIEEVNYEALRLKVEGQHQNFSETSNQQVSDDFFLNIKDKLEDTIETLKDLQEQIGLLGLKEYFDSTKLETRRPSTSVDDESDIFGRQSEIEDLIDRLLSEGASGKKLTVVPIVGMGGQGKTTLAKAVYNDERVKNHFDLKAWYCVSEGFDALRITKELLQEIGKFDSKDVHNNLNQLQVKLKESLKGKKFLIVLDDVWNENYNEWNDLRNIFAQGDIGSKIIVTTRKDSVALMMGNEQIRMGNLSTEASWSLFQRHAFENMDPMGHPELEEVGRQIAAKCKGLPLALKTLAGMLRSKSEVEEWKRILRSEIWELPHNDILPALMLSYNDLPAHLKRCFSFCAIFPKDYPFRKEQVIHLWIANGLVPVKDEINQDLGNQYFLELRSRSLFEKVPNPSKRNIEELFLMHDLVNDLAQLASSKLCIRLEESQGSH
# T2: I-2 CC-NB-ARC S233F (Solanum lycopersicum (tomato), UniProt Q9XET3 1-519, S233F)
# T2 sequence: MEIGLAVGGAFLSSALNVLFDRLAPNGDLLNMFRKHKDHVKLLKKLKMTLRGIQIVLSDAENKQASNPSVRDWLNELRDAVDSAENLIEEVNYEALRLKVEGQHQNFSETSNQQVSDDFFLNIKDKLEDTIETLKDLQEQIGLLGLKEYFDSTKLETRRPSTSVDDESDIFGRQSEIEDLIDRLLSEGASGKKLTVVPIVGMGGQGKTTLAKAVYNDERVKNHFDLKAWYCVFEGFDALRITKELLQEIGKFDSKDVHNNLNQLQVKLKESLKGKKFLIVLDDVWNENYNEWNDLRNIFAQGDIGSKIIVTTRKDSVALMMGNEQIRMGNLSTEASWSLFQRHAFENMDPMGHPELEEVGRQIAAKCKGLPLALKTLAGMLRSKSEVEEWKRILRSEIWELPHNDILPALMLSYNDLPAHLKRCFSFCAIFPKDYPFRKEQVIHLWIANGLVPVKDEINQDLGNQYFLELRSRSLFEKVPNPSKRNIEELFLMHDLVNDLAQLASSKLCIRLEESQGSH
# T3: I-2 CC-NB-ARC K207R (Solanum lycopersicum (tomato), UniProt Q9XET3 1-519, K207R)
# T3 sequence: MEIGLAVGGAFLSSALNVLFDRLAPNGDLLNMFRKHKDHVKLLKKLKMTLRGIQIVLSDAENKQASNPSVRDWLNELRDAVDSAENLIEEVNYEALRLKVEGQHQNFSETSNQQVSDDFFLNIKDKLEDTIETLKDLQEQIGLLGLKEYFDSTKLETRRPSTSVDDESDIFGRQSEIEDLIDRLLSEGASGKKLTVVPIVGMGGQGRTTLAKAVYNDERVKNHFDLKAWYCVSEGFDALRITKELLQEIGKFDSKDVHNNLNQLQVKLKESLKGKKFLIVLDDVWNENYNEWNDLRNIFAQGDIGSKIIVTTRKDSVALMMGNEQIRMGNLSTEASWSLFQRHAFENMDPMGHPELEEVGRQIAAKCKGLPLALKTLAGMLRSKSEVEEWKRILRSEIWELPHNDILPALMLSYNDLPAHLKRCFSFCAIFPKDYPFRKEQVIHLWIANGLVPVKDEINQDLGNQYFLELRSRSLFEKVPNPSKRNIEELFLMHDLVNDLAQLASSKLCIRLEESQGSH
# Key:
# [1] = test system: R1-NB (NB subdomain of Os02g_25900) (Oryza sativa (rice)); assay: EMSA; conditions: apparent Kd; EMSA: 20 mM Tris-HCl pH 8.0, 60 mM NaCl, 2 mM EDTA, 1 mM DTT, 10% glycerol, 0.1 mg/ml BSA, 0.15 nM nucleic acid, 20 min on ice (nucleotide tests + 10 mM ZnCl2 …)
# [2] = biological target: T4, I-2_1–519 (Solanum lycopersicum, UniProt Q9XET3, S233F); assay: EMSA of […]-dsDNA binding with nucleotide; conditions: 5 uM ADP compared with 5 uM ATP; 10 mM ZnCl2, pH 8.0, on ice
# T4 construct: gene I2; CC-NB-ARC domains, residues 1-519, LRR lacking
# [3] = biological target: T5, I-2_1–519 (Solanum lycopersicum, UniProt Q9XET3); assay: EMSA of […]-dsDNA binding with nucleotide; conditions: 5 uM ADP, 10 mM ZnCl2, pH 8.0, on ice; ADP lowers DNA binding
# T5 construct: gene I2; CC-NB-ARC domains, residues 1-519, LRR lacking
# [4] = biological target: T5, I-2_1–519; assay: ATPase assay, 3H-ATP, TLC; format: biochemical; conditions: 5 uM ATP, 10 mM MgCl2, pH 7.5, 37 °C; without and with 2 uM DNA; labelled compound
# [5] = biological target: T1, I-2 CC-NB-ARC WT (I-2 1-519); assay: EMSA; apparent Kd; EMSA: 20 mM Tris-HCl pH 8.0, 60 mM NaCl, 2 mM EDTA, 1 mM DTT, 10% glycerol, 0.1 mg/ml BSA, 0.15 nM nucleic acid, 20 min on ice (nucleotide tests + 10 mM ZnCl2 as printed); anisotropy: 6.7 mM Tris-HCl pH 8.0, 3.3 mM Na acetate, 2 mM EDTA, 10 nM DNA, 25 C; P1: 20 mM Tris acetate pH 7.5, 10 mM Mg acetate, 100 mM NaCl, 37 C; conditions: protein: recombinant, label: 32P end label
# [6] = biological target: T1, I-2 CC-NB-ARC WT (I-2 1-519); assay: EMSA; 5 uM ATP, 10 mM ZnCl2 (so in the source); EMSA: 20 mM Tris-HCl pH 8.0, 60 mM NaCl, 2 mM EDTA, 1 mM DTT, 10% glycerol, 0.1 mg/ml BSA, 0.15 nM nucleic acid, 20 min on ice (nucleotide tests + 10 mM ZnCl2 as printed); anisotropy: 6.7 mM Tris-HCl pH 8.0, 3.3 mM Na acetate, 2 mM EDTA, 10 nM DNA, 25 C; P1: 20 mM Tris acetate pH 7.5, 10 mM Mg acetate, 100 mM NaCl, 37 C; conditions: protein: recombinant; label: 32P end label; blunt
# [7] = biological target: T2, I-2 CC-NB-ARC S233F; assay: EMSA; indistinguishable from WT; EMSA: 20 mM Tris-HCl pH 8.0, 60 mM NaCl, 2 mM EDTA, 1 mM DTT, 10% glycerol, 0.1 mg/ml BSA, 0.15 nM nucleic acid, 20 min on ice (nucleotide tests + 10 mM ZnCl2 as printed); anisotropy: 6.7 mM Tris-HCl pH 8.0, 3.3 mM Na acetate, 2 mM EDTA, 10 nM DNA, 25 C; P1: 20 mM Tris acetate pH 7.5, 10 mM Mg acetate, 100 mM NaCl, 37 C; conditions: protein: recombinant; label: 32P end label; blunt
# [8] = biological target: T3, I-2 CC-NB-ARC K207R; assay: EMSA; apparent Kd; EMSA: 20 mM Tris-HCl pH 8.0, 60 mM NaCl, 2 mM EDTA, 1 mM DTT, 10% glycerol, 0.1 mg/ml BSA, 0.15 nM nucleic acid, 20 min on ice (nucleotide tests + 10 mM ZnCl2 as printed); anisotropy: 6.7 mM Tris-HCl pH 8.0, 3.3 mM Na acetate, 2 mM EDTA, 10 nM DNA, 25 C; P1: 20 mM Tris acetate pH 7.5, 10 mM Mg acetate, 100 mM NaCl, 37 C; conditions: protein: recombinant; label: 32P end label; blunt
# [9] = biological target: T3, I-2 CC-NB-ARC K207R; assay: fluorescence anisotropy; EMSA: 20 mM Tris-HCl pH 8.0, 60 mM NaCl, 2 mM EDTA, 1 mM DTT, 10% glycerol, 0.1 mg/ml BSA, 0.15 nM nucleic acid, 20 min on ice (nucleotide tests + 10 mM ZnCl2 as printed); anisotropy: 6.7 mM Tris-HCl pH 8.0, 3.3 mM Na acetate, 2 mM EDTA, 10 nM DNA, 25 C; P1: 20 mM Tris acetate pH 7.5, 10 mM Mg acetate, 100 mM NaCl, 37 C; conditions: protein: recombinant; label: fluorescein end label on SS1s; blunt
# [10] = biological target: T1, I-2 CC-NB-ARC WT (I-2 1-519); assay: as above; conditions: protein: recombinant; label: fluorescein end label on SS1s; blunt
molecule,measurement,setting,value
TGGGTCAACGTGGGCAAAGATGTCCTAGCAATGTAATCGTCTATGACGTT [SS1 ssDNA (50 nt)],Kd,[1],3340 nM
UGGGUCAACGUGGGCAAAGAUGUCCUAGCAAUGUAAUCGUCUAUGACGUU [ssRNA sense strand (50 nt)],Kd,[1],12400 nM
Nc1ncnc2c1ncn2[C@@H]1O[C@H](COP(=O)(O)OP(=O)(O)O)[C@@H](O)[C@H]1O [ADP],% DNA binding with ADP relative to ATP,[2],61 ± 7%
same,ratio of DNA binding with ADP vs with ATP or no nucleotide,[3],~ 0.65
Nc1ncnc2c1ncn2[C@@H]1O[C@H](COP(=O)(O)OP(=O)(O)OP(=O)(O)O)[C@@H](O)[C@H]1O [ATP],ATPase activity,[4],The CC-NB-ARC domain of I-2 has a very low intrinsic ATPase activity in vitro
TGGGTCAACGTGGGCAAAGATGTCCTAGCAATGTAATCGTCTATGACGTT (double strand) [SS1/SS2 dsDNA (50 bp)],Kd,[1],2750 nM
TGGGTCAACGTGGGCAAAGATGTCCTAGCAATGTAATCGTCTATGACGTT (ssDNA) [SS1 ssDNA (50 nt)],Kd,[5]; single strand,150 ± 10 nM
SS1/SS2 dsDNA (50 bp) (dsDNA) DNA 1: TGGGTCAACGTGGGCAAAGATGTCCTAGCAATGTAATCGTCTATGACGTT DNA 2: AACGTCATAGACGATTACATTGCTAGGACATCTTTGCCCACGTTGACCCA,binding signal,[6],~1 ratio to no nucleotide
same,binding result,[7],binds
same,Kd,[8],230 ± 10 nM
same,Kd,[5]; blunt,220 ± 20 nM
"SS1s/SS2s dsDNA (20 bp), anisotropy (dsDNA) DNA 1: TGGGTCAACGTGGGCAAAGA DNA 2: TCTTTGCCCACGTTGACCCA",Kd,[9],940 ± 90 nM
same,Kd,[10],320 ± 50 nM
